In US20220381793A1, “COMPOSITIONS AND METHODS FOR IDENTIFYING MHC-II BINDING PEPTIDES” (priority 2021, published 2022):
Like-named read-outs stand apart in the source and are kept apart here. No end group written: not given here. Ahx = NCCCCCC(=O)O

Key:
[1] = target: T1, “empty” DR4-LZ (DRA*01:01/DRB1*04:01 ectodomains with Jun/Fos leucine zippers, non-covalent heterodimer displayed on yeast through Aga2p); assay: flow; conditions: chains peptide; modification not given
[2] = target: T2, “empty” DR4-LZ (DRA*01:01/DRB1*04:01 ectodomains with Jun/Fos leucine zippers, non-covalent heterodimer displayed on yeast through Aga2p) (human)
[3] = target: T1, “empty” DR4-LZ (DRA*01:01/DRB1*04:01 …); assay: competition; conditions: chains peptide; modification not given
[4] = target: T2, “empty” DR4-LZ (DRA*01:01/DRB1*04:01 …); remark: listed apart in the source
[5] = target: T3, “empty” DQ6-LZ (DQA1*01:02/DQB1*06:02 ectodomains with Fos/Jun leucine zippers, non-covalent heterodimer displayed on yeast through Aga2p); assay: competition; conditions: chains peptide; modification not given
[6] = target: T3, “empty” DQ6-LZ (DQA1*01:02/DQB1*06:02 …); assay: flow; conditions: chains peptide; modification not given

For PKYVKQNTLKLAT [Bio-HA306-318 (biotin-Ahx-…)], the Kd [1] was 33.2 µM.

In the case of HGVVFLHVTYVPAQEKN (modifications not checked) [S1058-1074, P0DTC2 1058-1074], the % competition [2] is reported as 75%.

PKYVKQNTLKLAT [non-biotinylated HA306-318] was tested, and the IC50 [3] was 66.8 µM.

NRALTGIAVEQDKNTQE (modifications not checked) [S764-780, P0DTC2 764-780] gave a % competition [4] of under 50%.

QASGNHAAGILTMGR [HCRT85-99, O43612 85-99] was tested, and the IC50 [5] was 25.2 µM.

Work on MNLPSTKVSWAAVK-{Ahx-biotin} [HCRT1-13-Bio (…-Ahx-biotin)] yielded a Kd [6] of 12.5 µM.
